Laboratory results: patent publication US20060216339

Key:
[1] = test system: purified recombinant Elk1 protein (Elk1-GST fusion protein) [GST: P08515]
[2] = test system: recombinant mammalian ERK2 (MAPK p42 protein, bacterial recombinant, already containing phospho-tyrosine-185)

purified recombinant Elk1 protein (Elk1-GST fusion protein) [GST: P08515], sequence (P08515 whole entry, looked up, the tested form may be a part): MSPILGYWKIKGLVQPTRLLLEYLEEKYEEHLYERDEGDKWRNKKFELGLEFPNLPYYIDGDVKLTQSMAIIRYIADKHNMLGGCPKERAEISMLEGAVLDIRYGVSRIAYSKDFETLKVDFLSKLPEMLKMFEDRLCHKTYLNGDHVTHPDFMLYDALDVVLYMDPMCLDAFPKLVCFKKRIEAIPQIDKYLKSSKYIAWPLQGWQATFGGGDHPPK

## active apMAPK (phospho-apMAPK, dually phosphorylated at the T-E-Y site)
[1]
  phosphorylation of Elk1 at Ser^383 (Western blot with Ab^pElk1): the apPKG-activated ap-MAPK phosphorylated its physiological substrate, Elk1, at the appropriate Ser^383

## MEK1 (MAP kinase kinase 1)-GST fusion protein, activated by the catalytic subunit of MEKK1
[2]
  ERK2 activity (production of phospho-Elk1): MEK1, which produces the maximally activated kinase

## ERK2 activated by apPKG (doubly phosphorylated, T183 and Y185)
[1]
  phosphorylation of Elk1 at Ser^383 (Western blot with Ab^pElk1): ERK2 activity was measured by the phosphorylation of Elk1 at Ser^383
